Results published in patent US20130022590, “Compositions Comprising Zinc Finger Domains and Uses Therefor” (published 2013).

Columns and labels:
[1] = biological target: T1, ZRANB2-F12 (Homo sapiens, UniProt O95218 O95218:1-95); experiment: EMSA; 10 mM Mops pH 7.2, 50 mM KCl, 5 mM MgCl2, heparin, 4 C; conditions: tags: GST removed for FA, gel shift and SPR; label: 5'-fluorescein (FA) or 32P (gel shift)
Protocol: (§1) Gel Shift assays e.g., FIGS. 1B, 32A, were carried out using standard protocols. In brief, oligonucleotides were 5′ end-labelled with T4 polynucleotide kinase and annealed. Binding reactions were set up in a volume of 30 μL and contained a constant concentration of ³²P-labeled probe (0.1 pmol) and increasing concentrations of F12, in a buffer consisting of 10 mM Mops (pH 7.2), 50 mM KCl, 5 mM MgCl₂, 1 mM DTT, 0.03 mg/mL heparin, and 5% glycerol. Binding reactions were set up on ice and incubated at 4° C. for 30 min, after which time 15 μL of each sample was loaded onto a prerun 8% native polyacrylamide gel made up in 0.5× Tris-borate buffer, and electrophoresed (250V, 1 h, 4° C.). The oligonucleotide sequence used for gel shift experiments was […] (SEQ ID NO: 28); the site was mutated by changing the central GGU to CUG.
(§2) To determine whether the AGGUAA motif was sufficient for binding, the binding of the double finger construct F12 to a 17-nt RNA oligonucleotide containing a single AGGUAA motif was tested as described in Section 1.4 above with dsDNA, ssDNA, and dsRNA also tested as controls. […] Mutation of the central GGU, which is the most highly-conserved element in the SELEX consensus to CUG, abrogated the interaction, showing that the interaction is sequence specific (FIG. 1B).

[2] = biological target: T2, ZRANB2-F2 T73A (Homo sapiens, UniProt O95218 O95218:65-95, T73A); experiment: FP; much smaller change in affinity; conditions: label: 5'-fluorescein (FA) or 32P (gel shift)
T2 chain: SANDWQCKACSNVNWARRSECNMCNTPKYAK
Protocol: (§3) Fluorescence Anisotropy titrations e.g., as shown in FIGS. 1D-F, 8 and 35, were carried out using standard protocols. In brief, 5′-Fluorescein-labeled RNA oligonucleotides were quantified by A₂₆₀, correcting for fluorescein absorbance by using A₄₉₃. For single-site experiments, the sequence […] (SEQ ID NO: 28), or single base mutants thereof, was used. For double-site experiments, two AGGUAA sites were separated by different length sequences as indicated, and the total oligonucleotide lengths were kept constant by the symmetrical addition of adenines to each end. The anisotropy titrations were performed with a starting RNA concentration of 50 nM in a buffer comprising either 10 mM Tris (pH 8.0), 50 mM KCl, 5 mM MgCl₂, 0.05 mg/mL heparin, and 1 mM DTT (for GST fusion constructs) or 10 mM Mops (pH 7.3), 50 mM NaCl, 0.05 mg/mL heparin, and 1 mM DTT (for ZRANB2-F12). RNasin (Promega) was also added to the protein solution to a concentration of 2 units/μL. Protein was titrated into this starting solution and anisotropy values measured on a Cary Eclipse fluorescence spectrophotometer fitted with manual polarizer and long-pass filters set to 475 and 515 nm for excitation and emission, respectively. […] Association constants were determined by nonlinear least squares regression analysis using a 1:1 binding model. […]

[3] = biological target: T3, ZRANB2-F2 K72A (Homo sapiens, UniProt O95218 O95218:65-95, K72A); experiment: FP; much smaller change in affinity; conditions: label: 5'-fluorescein (FA) or 32P (gel shift)
T3 chain: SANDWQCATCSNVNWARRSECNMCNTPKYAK
Protocol: as §3

[4] = biological target: T4, ZRANB2-F2 R82Q (Homo sapiens, UniProt O95218 O95218:65-95, R82Q); experiment: FP; conditions: label: 5'-fluorescein (FA) or 32P (gel shift)
T4 chain: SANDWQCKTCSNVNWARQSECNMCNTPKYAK
Protocol: (§4) Fluorescence Anisotropy titrations e.g., as shown in FIGS. 1D-F, 8 and 35, were carried out using standard protocols. In brief, 5′-Fluorescein-labeled RNA oligonucleotides were quantified by A₂₆₀, correcting for fluorescein absorbance by using A₄₉₃. For single-site experiments, the sequence […] (SEQ ID NO: 28), or single base mutants thereof, was used. For double-site experiments, two AGGUAA sites were separated by different length sequences as indicated, and the total oligonucleotide lengths were kept constant by the symmetrical addition of adenines to each end. […] Protein was titrated into this starting solution and anisotropy values measured on a Cary Eclipse fluorescence spectrophotometer fitted with manual polarizer and long-pass filters set to 475 and 515 nm for excitation and emission, respectively. […] Association constants were determined by nonlinear least squares regression analysis using a 1:1 binding model.
(§5) To determine whether changing arginine-82 (R82) would affect the binding preference of ZRANB2-F2 from GGU to GAU, the point mutation R82Q in ZNF 2 of ZRANB2 was made and the ability of both the wild type (W) protein and the R82Q mutant to bind to AGGUAA and AGAUAA was assessed by fluorescence anisotropy binding assays as described previously in Example 1.

[5] = biological target: T5, ZRANB2-F1 (Homo sapiens, UniProt O95218 O95218:1-45); experiment: FP; GST-F1; 10 mM Tris pH 8.0, 50 mM KCl, 5 mM MgCl2, heparin, 25 C; conditions: tags: GST fusion; label: 5'-fluorescein (FA) or 32P (gel shift)
T5 chain: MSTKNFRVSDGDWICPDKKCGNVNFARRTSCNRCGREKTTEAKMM
Protocol: as §4
Constructs of the two individual domains, F1 (FIG. 2, residues 1-45) and F2 (FIG. 2, residues 65-95), were cloned expressed and purified as GST fusions described in section 1.2 above, and tested their ability to bind ssRNA by fluorescence anisotropy as described in section 1.5 above, using a ssRNA oligonucleotide bearing a 5′ fluorescein tag and containing a single AGGUAA site.

[6] = biological target: T6, ZRANB2-F2 (Homo sapiens, UniProt O95218 O95218:65-95); experiment: FP; GST-F2; 10 mM Tris pH 8.0, 50 mM KCl, 5 mM MgCl2, heparin, 25 C; conditions: tags: GST fusion (FA); label: 5'-fluorescein (FA) or 32P (gel shift)
T6 chain: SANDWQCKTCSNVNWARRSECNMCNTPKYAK
Protocol: Fluorescence Anisotropy titrations e.g., as shown in FIGS. 1D-F, 8 and 35, were carried out using standard protocols. In brief, 5′-Fluorescein-labeled RNA oligonucleotides were quantified by A₂₆₀, correcting for fluorescein absorbance by using A₄₉₃. For single-site experiments, the sequence […] (SEQ ID NO: 28), or single base mutants thereof, was used. For double-site experiments, two AGGUAA sites were separated by different length sequences as indicated, and the total oligonucleotide lengths were kept constant by the symmetrical addition of adenines to each end. The anisotropy titrations were performed with a starting RNA concentration of 50 nM in a buffer comprising either 10 mM Tris (pH 8.0), 50 mM KCl, 5 mM MgCl₂, 0.05 mg/mL heparin, and 1 mM DTT (for GST fusion constructs) or 10 mM Mops (pH 7.3), 50 mM NaCl, 0.05 mg/mL heparin, and 1 mM DTT (for ZRANB2-F12). RNasin (Promega) was also added to the protein solution to a concentration of 2 units/μL. Protein was titrated into this starting solution and anisotropy values measured on a Cary Eclipse fluorescence spectrophotometer fitted with manual polarizer and long-pass filters set to 475 and 515 nm for excitation and emission, respectively. […] Association constants were determined by nonlinear least squares regression analysis using a 1:1 binding model.

[7] = biological target: T4, ZRANB2-F2 R82Q; experiment: FP; no preference between G and A at position 3; conditions: label: 5'-fluorescein
Protocol: as §4, §5

[8] = biological target: T1, ZRANB2-F12; experiment: EMSA; dsRNA control; conditions: tags: GST removed for FA, gel shift and SPR; label: 32P
Protocol: as §1, §2

[9] = biological target: T1, ZRANB2-F12; experiment: FP; higher affinity than shorter spacings; value in figure only; conditions: tags: GST removed for FA, gel shift and SPR; label: 5'-fluorescein
Protocol: as §4
The importance of the spacing between AGGUAA motifs was assessed by measuring binding of F12 to double sites that were separated by −1 to 8 nt (where −1 denotes the sequence […] SEQ ID NO: 33; FIG. 1E, lanes 5-10).

[10] = biological target: T1, ZRANB2-F12; experiment: 15N-HSQC titration; conditions: tags: GST removed for FA, gel shift and SPR; label: 5'-fluorescein
Protocol: In brief, F2 and F12 were dialysed into 25 mM potassium phosphate (pH 7.0), 25 mM NaCl, and 0.5 mM DTT and concentrated to 0.4-1 mM. All spectra were recorded on a Bruker Avance 600 spectrometer equipped with a cryoprobe. 1H, 15N, and 13C assignments were obtained from HNCACB, CB-CA(CO)NH, HCCH-TOCSY, NOESY, and TOCSY spectra acquired at 2° C., 5° C., or 25° C. Dihedral angle restraints were obtained by analysis of an HNHA spectrum as previously described in Vuister G. W. and Bax A. 1993 J Am Chem Soc 115: 7772-7777. NMR data were processed by using XWINNMR/Topspin (Bruker) and analyzed with SPARKY (T. D. Goddard and D. G. Kneller, University of California, San Francisco). The structure of F2 was calculated from NOE and Ø angle constraints (e.g., FIGS. 5 and 9C) by using a protocol as described in Plambeck C. A., et al., 2003 J Biol Chem 278: 22805-22811.
¹⁵N-HSQC titrations were also carried out by using the double finger construct (F12; residues 1-95) and the double site oligonucleotide. AGGUAAAGGUAA (SEQ ID NO: 26). […] This titration (FIG. 9D) gave rise to the same pattern of chemical-shift changes as the two single-finger experiments. Only 3-4 new signals appeared, most likely from linker residues.

GCAACCAGGUAAAGUCU (ssRNA) [17-nt AGGUAA ssRNA]
binding result [1]: binds | binding result [2]: binds | binding result [3]: binds | binding signal [4]: ~2 fold lower than WT F2 | Ka [5]: 3e+06 M⁻¹ | Ka [6]: 1e+06 M⁻¹

AGAUAA (ssRNA) [AGAUAA (3A)]
binding signal [7]: ~2 fold higher than WT F2 on same RNA

B1: 17-nt site as dsRNA (dsRNA)
RNA 1: GCAACCAGGUAAAGUCU
RNA 2: AGACUUUACCUGGUUGC
binding result [8]: no binding

AGGUAAAAAAAAGGUAA (ssRNA, [none]) [double site spacing 5 (penta-adenine)]
binding result [9]: binds

AGGUAAAGGUAA (ssRNA) [double site AGGUAAAGGUAA]
binding result [10]: binds
